Measurements reported in US20170275344A1, “POLYPEPTIDES AND USES THEREOF AS A DRUG FOR TREATMENT OF AUTOIMMUNE DISORDERS” (Compugen Ltd., priority 2014, published 2017).

Tested on: SJL/J mice
Test: Trafficking of transferred PLP139-151 sensitized cells into the CNS (flow cytometry)
Format: in vivo, mouse
Experimental: PLP139-151 sensitized cells were generated as described in Materials and Methods (cell counts in the reactivation culture are presented in Table 2) and labeled with PBSE (4 uM) before transfer to naïve mice. In study “Cgen data” (FIG. 12), disease was induced in recipient mice (n=10 per group) by i.v. transfer of 5×10^6 blast cells to each recipient mouse. A relatively large number of transferred cells were used in order to allow detection of the transferred cells by flow cytometry analysis at the end of the study. Mice were split into Control Ig and C1ORF32 ECD-Fc (SEQ ID NO:42) treatment groups, receiving 100 ug/dose intraperitoneal injection three times per week for 2 weeks. On Day +14 after cell transfer, 5 representative mice from each group were selected for analysis of trafficking of transferred cells into the CNS. Spleens, cervical lymph nodes, and CNS were collected, and the number of PBSE- or PBSE+/CD45+/CD3+/CD4+ T cells was analyzed by flow cytometric analysis.
An additional experiment (designated “MYC48 FACS”, FIG. 13) was performed using an alternative staining follow-up approach. SJL-Actin/GFP mice were primed with PLP139-151/CFA, and sensitized blast cells were generated as described in Materials and Methods (cell counts in the reactivation culture are presented in Table 2). On Day +3 of culture, PLP139-151 sensitized cells were collected and labeled with PBSE (4 uM). Disease was induced in the recipient mice (n=10 per group), by i.v. transfer of 5×10^6 blast cells/mouse. Beginning at the time of cell transfer, mice were treated with Control Ig or C1ORF32 ECD-Fc (SEQ ID NO:42) (100 ug/dose i.p. three times per week for 2 weeks). […] To evaluate C1ORF32 ECD-Fc (SEQ ID NO:42) effect on immune cell trafficking to the CNS, spleens, cervical lymph nodes, and CNS cells collected form 5 mice on day +10 post cell transfer, and the number of transferred CD45hi PBSE+ or GFP+ cells was analyzed by flow cytometry. […]

B1: C1ORF32 ECD-Fc (SEQ ID NO:42): fusion protein of human C1ORF32 ECD fused to mouse immunoglobulin Fc (human-mouse fusion protein) (protein)
chain: LQVTVPDKKKVAMLFQPTVLRCHFSTSSHQPAVVQWKFKSYCQDRMGESLGMSSTRAQSLSKRNLEWDPYLDCLDSRRTVRVVASKQGSTVTLGDFYRGREITIVHDADLQIGKLMWGDSGLYYCIITTPDDLEGKNEDSVELLVLGRTGLLADLLPSFAVEIMGSENLYFQGSGEPRGPTIKPCPPCKCPAPNLLGGPSVFIFPPKIKDVLMISLSPIVTCVVVDVSEDDPDVQISWFVNNVEVHTAQTQTHREDYNSTLRVVSALPIQHQDWMSGKEFKCKVNNKDLPAPIERTISKPKGSVRAPQVYVLPPPEEEMTKKQVTLTCMVTDFMPEDIYVEWTNNGKTELNYKNTEPVLDSDGSYFMYSKLRVEKKNWVERNSYSCSVVHEGLHNHHTTKSFSRTPGK
modifications: Fusion protein human C1ORF32-ECD fused to mouse IgG2a Fc
- number of transferred CD4+ T cells within the CNS (study Cgen data, treatment from time of cell transfer): decrease
- number of total or activated transferred T cells in the spleen and cervical lymph nodes (study MYC48 FACS, day +10): No change
- number of GFP+ and PBSE+ transferred cells in the CNS (study MYC48 FACS, day +10 post cell transfer): decrease
